For series [1], the target named is T1, SDN1 TEV (Arabidopsis thaliana, UniProt A3KPE8 2-300+=ENLYFQS+301-409, internal_change).
T1 sequence: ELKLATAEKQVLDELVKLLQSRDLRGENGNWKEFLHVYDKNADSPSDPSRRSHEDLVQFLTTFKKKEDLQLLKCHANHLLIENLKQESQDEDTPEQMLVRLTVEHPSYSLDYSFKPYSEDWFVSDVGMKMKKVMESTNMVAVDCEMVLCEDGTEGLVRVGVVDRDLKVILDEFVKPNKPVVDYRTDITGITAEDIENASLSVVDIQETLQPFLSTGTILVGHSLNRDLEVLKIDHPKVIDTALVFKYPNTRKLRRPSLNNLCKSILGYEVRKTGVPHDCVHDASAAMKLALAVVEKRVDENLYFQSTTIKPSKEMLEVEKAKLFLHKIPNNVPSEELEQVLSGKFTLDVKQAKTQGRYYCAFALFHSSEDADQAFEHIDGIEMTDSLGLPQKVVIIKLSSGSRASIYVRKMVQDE
The experiment in a line: UV crosslinking + TEV mapping; RNA on RRM fragment; EMSA: 50 mM Tris pH 8.0, 100 mM NaCl, 1 mM DTT, no Mg2+, 2 nM RNA, on ice 30 min, 8% native PAGE in 0.5x TBE; NMR: 50 mM Na2HPO4 pH 7.4, 100 mM NaCl, 10% D2O. The settings on record: protein: recombinant; tags: His-SUMO tag removed; label: 5' 32P on target strand; unpaired miR166 3' end (T6-type); target 3' overhang 4 nt.

Series [2] addresses T1, SDN1 TEV. The experiment in a line: UV crosslinking + TEV mapping; RNA on DEDDh (ΔC) fragment; EMSA: 50 mM Tris pH 8.0, 100 mM NaCl, 1 mM DTT, no Mg2+, 2 nM RNA, on ice 30 min, 8% native PAGE in 0.5x TBE; NMR: 50 mM Na2HPO4 pH 7.4, 100 mM NaCl, 10% D2O. To be noted: protein: recombinant; tags: His-SUMO tag removed; label: 5' 32P on target strand; unpaired miR166 3' end (T6-type); target 3' overhang 4 nt.

Series [3] deals with T2, SDN1 S22A (Arabidopsis thaliana, UniProt A3KPE8 2-409, S22A).
T2 sequence: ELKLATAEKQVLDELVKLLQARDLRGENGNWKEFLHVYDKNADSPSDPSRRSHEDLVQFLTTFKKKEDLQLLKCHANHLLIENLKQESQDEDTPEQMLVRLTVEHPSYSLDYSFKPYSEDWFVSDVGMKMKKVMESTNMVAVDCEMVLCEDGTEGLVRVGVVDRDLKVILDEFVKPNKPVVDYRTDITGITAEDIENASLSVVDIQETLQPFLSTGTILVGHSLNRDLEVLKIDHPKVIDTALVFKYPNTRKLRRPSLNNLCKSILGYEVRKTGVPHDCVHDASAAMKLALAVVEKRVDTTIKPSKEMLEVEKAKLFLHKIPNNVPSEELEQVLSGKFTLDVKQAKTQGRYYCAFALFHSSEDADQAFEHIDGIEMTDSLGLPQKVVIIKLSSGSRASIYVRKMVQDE
The experiment in a line: EMSA; not impaired; EMSA: 50 mM Tris pH 8.0, 100 mM NaCl, 1 mM DTT, no Mg2+, 2 nM RNA, on ice 30 min, 8% native PAGE in 0.5x TBE; NMR: 50 mM Na2HPO4 pH 7.4, 100 mM NaCl, 10% D2O. The settings on record: protein: recombinant; tags: His-SUMO tag removed; label: 5' 32P; single strand.

The target of series [4] is T3, SDN1 Q21A (Arabidopsis thaliana, UniProt A3KPE8 2-409, Q21A).
T3 sequence: T2 sequence with Q20A, A21S
The description is as above. The settings on record: protein: recombinant; tags: His-SUMO tag removed; label: 5' 32P; single strand.

The target of series [5] is T4, SDN1 F356A (Arabidopsis thaliana, UniProt A3KPE8 2-409, F356A).
T4 sequence: T2 sequence with A21S, F355A
The experiment in a line: EMSA; no Mg2+; not impaired; EMSA: 50 mM Tris pH 8.0, 100 mM NaCl, 1 mM DTT, no Mg2+, 2 nM RNA, on ice 30 min, 8% native PAGE in 0.5x TBE; NMR: 50 mM Na2HPO4 pH 7.4, 100 mM NaCl, 10% D2O. To be noted: protein: recombinant; tags: His-SUMO tag removed; label: 5' 32P; single strand.

Positions count from the first letter of the chain named.

B1: miR166:5'-IUU (dsRNA)
RNA 1: UCGGACCAGGCUUCAUCCCCC
RNA 2: GAUUCCCUUGAAGCUUGGUCCGGAUUA
modifications: 5-iodoU at 3,4 of strand 2
Take B1: in series [1], the binding result is reported as “binds”.

B2: miR166:3'-IUU (dsRNA)
RNA 1: UCGGACCAGGCUUCAUCCCCC
RNA 2: GAUUCCCUUGAAGCUUGGUCCGGAUUA
modifications: 5-iodoU at 25,26 of strand 2
For the molecule B2, in series [2], the binding result is “binds”.
Turning to UCGGACCAGGCUUCAUCCCCC (ssRNA) [miR166], the binding result in series [3], in series [4] and in series [5] was “binds” throughout.

The record behind these values is paper PMC6123492, “Structural and biochemical insights into small RNA 3′ end trimming by Arabidopsis SDN1”.
